Tests used:
[1] = tested on: His-BcpT (recombinant N-terminal His-tagged BcpT without signal sequence)

**Q.** Which “cleavage by FXa (Coomassie gel)” value (His-BcpT R199N) does the source give for Factor Xa here?
**A.** Its value is “are not cleaved by FXa (other than releasing the His-tag)”.

**Q.** And the “cleavage by FXa (Coomassie gel)” value (His-BcpT R65N)?
**A.** Its value is “is cleaved only at the R199 site”.

**Q.** What about the “cleavage by FXa (Coomassie gel)” value (His-BcpT R65N:R199N) of the same substance?
**A.** Its value is “are not cleaved by FXa (other than releasing the His-tag)”.

**Q.** What about the “cleavage of His-tagged BcpT (Coomassie gel, N-terminal sequencing of fragments)” value [1] of the same substance?
**A.** The value was “FXa cleaves after R65 and R199 of two Leu-Thr-Arg (LTR) motifs”.

**Q.** “doripain A activated with trypsin, DpnA(a)” was tested. Which “cleavage of BcpT site mutant (Western immunoblot)” value (His-BcpT R199N) did it give?
**A.** Its value is “both proteases can cleave BcpT^R199N at the R65 site, which FXa does not”.

**Q.** What about the “cleavage and activation of BcpT (Coomassie gel, agar overlay)” value [1] of the same substance?
**A.** Its value is “The active forms of both proteases cleave and activate BcpT”.

**Q.** “doripain A, full-length recombinant proenzyme (not trypsin treated)” was tested. Which “activation of BcpT (Coomassie gel, agar overlay)” value [1] did it give?
**A.** The value was “DpnA remains full-length and cannot activate BcpT”.

**Q.** How did the “cleavage of BcpT site mutant (Western immunoblot)” value (His-BcpT R199N) turn out when doripain B (DpnB) was run?
**A.** The value was “both proteases can cleave BcpT^R199N at the R65 site, which FXa does not”.

**Q.** What about the “cleavage and activation of BcpT (Coomassie gel, agar overlay)” value [1] of the same substance?
**A.** Its value is “The active forms of both proteases cleave and activate BcpT”.

Source: US20260014211
